Our source for the Kd values is paper PMC10636607 (2023).

What all share (assay): BLI
Assay [1] addresses HCV (isolate H77) E2 domain protein (hepatitis C virus (isolate H77)).
Assay [2] concerns the target His6-tagged SARS-CoV-2 receptor-binding domain (SARS-CoV-2, UniProt P0DTC2 319-541).
Assay [3] has as its target T1, biotinylated C-terminal αTSR domain of P. falciparum circumsporozoite protein (P. falciparum, UniProt Q7K740 310-375, biotinylated).
T1 chain: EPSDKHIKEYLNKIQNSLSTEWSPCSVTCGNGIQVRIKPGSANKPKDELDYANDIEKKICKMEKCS

The target of assay [4] is His-tagged HIV Env MPER peptide (HIV).
Assay [5] addresses T2, biotinylated influenza hemagglutinin (HA) from H1N1 A/California/07/2009 (influenza A virus H1N1 …).
The target in assay [6] is T3, biotinylated SARS-CoV-2 fusion peptide (SARS-CoV-2, biotin on the N-terminus).
T3 peptide: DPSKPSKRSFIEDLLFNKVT

Assay [7] has as its target T2, biotinylated influenza hemagglutinin …. This is another data set of the same source.

Residue numbers refer to the chain shown, from its start. Numbers in names are those of the source. Where two headings read alike, the source gives them in different places.

B1: HC84.26.5D Fab (WT) (Fab, V domains shown)
VH: VQPVQSGAEVKKPGSSVKVSCEASGGTHSNYVITWVRQAPGQGLEWMGGFIPDFRTAMYAQGFQGRVTITADESTSLAYMELTNLRSEDTAVYYCARGPLSRGYYDYWGPGTLVTVSS
VL: YVLTQPPSVSVAPGQTASITCSGDKLGDKYVSWYQQRPGQSPVLVLYQDSKRPSGIPERFSGSNSGNTATLTISGTQAMDEADYYCQAWDSSALVFGGGTKLTVL
In assay [1], B1 came in with a Kd of 0.9 nM.

B2: GAR12 Fab (WT) (Fab, V domains shown)
VH: EVQLVQSGGGLVQPGGSLRLSCAASGFTFSSYAMSWVRQAPGKGLEWVLSISGSGGSTYYADSVKGRFTISIDNSKKTVYLQMNSLRAEDTAVYYCAKSGEQQLVQAEYFHHWGQGTLVTVSS
VL: DIQMTQSPSTLSASVGDRVTITCRASQSIGRWLAWYQQKPGKAPKLLIYDASSLESGVPSRFSGSGFGTEFTLTISSLQPDDFATYYCQQCDSLLTFGGGTKLEIK
Molecule B2 yielded a Kd in assay [2] of 3.5 nM.

B3: GAR12 Fab VL D50K (Fab, V domains shown)
VH: B2 VH
VL: B2 VL with D50K
Molecule B3 returned a dissociation constant (Kd) in assay [2] of 153 nM.

B4: Fab234 (WT) (Fab, V domains shown)
VH: EVQLVESGGGLVKPGGSLRLSCAASGFNFSTHIMNWVRQAPGKGLEWVSSISSSGTYIYYADSMKGRFTISRDNPKNSLYLQMNSLRAEDTAVYYCARARGFIQFHYYMDVWGKGTTVAVSS
VL: SYVLTQPPSVSVAPGKTARITCGGNNIGSKSVHWHQQRPGQAPVLVVYDDKIRPSGIPERFSGSNSGNTATLIISRVEAGDEADYYCQVWHSSSDPVVFGGGTKLTVL
B4 yielded a Kd in assay [3] of 0.2 nM. That is a sub-nanomolar value.

B5: 4E10 Fab (WT) (Fab, V domains shown)
VH: QVQLVQSGAEVKRPGSSVTVSCKASGGSFSTYALSWVRQAPGRGLEWMGGVIPLLTITNYAPRFQGRITITADRSTSTAYLELNSLRPEDTAVYYCAREGTTGWGWLGKPIGAFAHWGQGTLVTVSS
VL: EIVLTQSPGTQSLSPGERATLSCRASQSVGNNKLAWYQQRPGQAPRLLIYGASSRPSGVADRFSGSGSGTDFTLTISRLEPEDFAVYYCQQYGQSLSTFGQGTKVEVK
The molecule B5 gave a Kd in assay [4] of 9.1 nM.

B6: 5J8 Fab (WT) (Fab, V domains shown)
VH: EVQLVESGPGLVKPSDILSLTCAVSGYSISSNYYWGWIRQPPGKGLEWIGSIYHSGSTYYKPSLESRLGISVDTSKNQFSLKLSFVSAADTAVYYCARHVRSGYPDTAYYFDKWGQGTLVTVSS
VL: SYVLTQPPSVSVAPGETARISCGGNNIGTKVLHWYQQTPGQAPVLVVYDDSDRPSGIPERFSGSNSGNTATLTISRVEVGDEADYYCQVWDISTDQAVFGGGTKLTVL
B6 gave a Kd in assay [5] of 4 nM.

B7: COV44-62 Fab (WT) (Fab, V domains shown)
VH: QMQLMQSGAEVKKPGASVTVSCKASGDTFSDYRIHWVRQAPGQGLEWMGRMNPKSGDTNFAQKFQGRVTMTRDMSINTAYMTLSGLTFDDTALYYCASLLIVGGFDPLDDFEVWGQGTMVTISS
VL: QSALTQPPSASGSPGQSVTISCSGTSSDVGGYNFVSWYQHHPGKAPKILIYEVTKRPSGVPDRFSGSKSGNTASLTVSGLQAEDEADYYCSSYGGTNNLLFGGGTKLTVL
B7 returned a Kd in assay [6] of 26 nM.

B8: 3E1 Fab (WT) (Fab, V domains shown)
VH: QVQLQESGPGLVKPSETLSLTCSVSGASISSYYWIWIRQPAGKGLEWIGRFYTSGSPNYNPSLRSRVTMSVDTSKNQFSLKLTSVTAADTAVYYCAREEHITFGGVIVRYWGQGTLVTVSP
VL: DIQMTQSPATLSASVGDRVSITCRASQSISSWLAWYQQKPGKAPKLLIYKASSLESGVPSRFSGSGSGSEFTLTISSLQPDDFAIYYCQQYNSYPWTFGQGTKVEIK
In assay [7], B8 had a Kd of 6.9 nM. In other words, the single-digit nanomolar range.
